In US20180002403A1 (CRESCENDO BIOLOGICS, published 2018):

What was measured:
[1] = target: T1, Recombinant human IL-17A (Peprotech AF-200-17) (human, UniProt Q16552 24-155); test: BIAcore T200, single-cycle kinetics, IL-17A amine-coupled to CM5 chip, 1:1 model
T1 construct: Amine-coupled to a CM5 chip (100 RU) for BIAcore; also called recombinant IL-17A
Description: (§1) Recombinant IL-17A (Peprotech AF-200-17) was diluted to 1 μg/ml in acetate buffer, pH 5.5 (BIAcore, cat# BR-100-52) and coupled to a CM5 Series S chip (cat # BR-1006-68) using amine-coupling chemistry (NHS-EDC amine-coupling kit, cat # BR-1000-50) and the BIAcore immobilization Wizard software. In this way 100RU of IL-17A was immobilised plus a blank surface (no IL-17A) was also prepared for reference subtraction. For IL-17RA, first a protein G chip was prepared by diluting protein G to 20 μg/ml in acetate buffer, pH 4 (BIAcore, cat# BR-100-49) and then coupled 1200 RU a CM5 Series S chip using amine coupling chemistry. This surface was then used to capture IL-17RA Fc fusion protein from solution: IL-17RA at 10 μg/ml in HBS injected for 10 seconds at 30 μl/min flow rate would capture approximately 100-150RU of IL-17RA onto the protein G surface.
(§2) Binding kinetics of optimized clone 1.1 (anti-IL-17A) and clone 2.1 (anti-IL-17RA) VH were determined by single-cycle kinetics. […] VH binding kinetics were then determined from the (blank subtracted) sensorgram traces using 1:1 binding models and BIAevaluation software.

[2] = target: T1, Recombinant human IL-17A (Peprotech …); test: BIAcore T200, single-cycle kinetics, IL-17A amine-coupled to CM5 chip
Description: Binding kinetics of VH antibodies were measured on a BIAcore T200 instrument. Target (either recombinant IL-17A or IL-17RA) was diluted to 1 μg/ml in acetate buffer, pH 5.5 (BIAcore, cat# BR-100-52) and coupled to a CM5 Series S chip (cat # BR-1006-68) using amine-coupling chemistry (NHS-EDC amine-coupling kit, cat # BR-1000-50) and the BIAcore immobilization Wizard software. In this way 100RU of target was immobilised plus a blank surface (no target) was also prepared for reference subtraction.
Binding kinetics of VH antibodies were determined by single-cycle kinetics. VH antibodies were prepared in dilution series (typically 1:3 dilution series starting with 100 nM VH at the highest concentration), and then injected over the antigen-coated surfaces and also a blank surface, starting with the lowest concentration of VH and then working progressively up to the highest concentration. VH binding kinetics were then determined from the (blank subtracted) sensorgram traces using 1:1 binding models and BIAevaluation software.

[3] = target: IL-17RA Fc fusion protein (human, UniProt Q96F46 33-320, limits assumed); test: BIAcore T200, single-cycle kinetics, IL-17RA Fc fusion captured on protein G chip, 1:1 model
Description: as §1, §2

T1 sequence (Q16552 24-155 limits assumed): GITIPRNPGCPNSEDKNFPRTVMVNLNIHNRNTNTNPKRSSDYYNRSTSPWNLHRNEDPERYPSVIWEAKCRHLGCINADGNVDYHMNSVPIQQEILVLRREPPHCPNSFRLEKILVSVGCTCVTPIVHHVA

Binder | fold improvement in affinity over parent clone 1.1 [1] | other results
clone 1.10 VH (VHH, Optimized variant of clone 1.1 from the recombination library; human VH single domain; also called optimized VH clone 1.10) VHH: VQLVESGGGLVQPGGSLRLSCAASGFTFSSYRMYWVRQAPGKGLEWVASIEQDGSEEYYVDSVKGRFTISRDNAKKSLFLQMNSLRAEDTAVYYCAKGEILPLYFDYWGQGTLVTVSS | ≤ 10 fold | 
clone 1.1 VH (VHH, Human VH single domain (no light chain) from a Tg/TKO mouse, lead raised against IL-17A; It was cloned in phagemid pUCG3; also called VH 1.1; parent VH 1.1) VHH: EVQLVESGGGLVQPGGSLRLSCAASGFTFSSYSMYWVRQAPGKGLEWVANIKQDGSEKYYVDSVKGRFTISRDNAKNSLFLQMNSLRAEDTAVYYCAKGEILPLHFDYWGQGTLVTVSS |  | binding result [2]: binds
clone 1.6 VH (VHH, Optimized variant of clone 1.1 from the recombination library; human VH single domain; also called optimized VH clone 1.6) VHH: EVQLVESGGGLVQPGGSLRLSCAASGFTFSSYSMYWVRQAPGKGLEWVAEIKQDGSEQYYVDSVKGRFTISRDNAKNSLYLQMNSLRAEDTAVYYCAKGEILPLYFDYWGQGTLVTVSS | ≤ 10 fold | 
clone 2.2 VH (VHH, Optimized variant of clone 2.1 from the recombination library; human VH single domain; also called optimized VH 2.2) VHH: QVQLVQSGAEVKKPGASVKVSCKASGYPFTSYDINWVRQATGRSLEWMGWMNPTNGNTVYAQKFQDRVTMTRNTSISTAYMELSSLRSEDTAVYFCARGRRDDWKNNYWGQGTLVTVSS |  | fold improvement in affinity over parent clone 2.1 [3]: 5 fold
